This note sets out measurements from patent US20040018971A1 (published 2004).

Like-named read-outs stand apart in the source and are kept apart here.

Experiment [1] has as its target T1, HLA-DRB1*0101 (human).
T1 construct: Purified HLA molecule; also called DR1
The experiment in a line: inhibition of 125I probe peptide binding to purified HLA-DR, gel filtration. A general note: Size exclusion chromatography separates by hydrodynamic size, large species first.

Another experiment has as its target T2, HLA-DR7 (DRB1*0701) (human).
T2 construct: purified HLA class II molecule
The experiment in a line: competition binding assay, purified HLA, 125I-labelled probe peptide, gel filtration.

Another experiment concerns the target T3, HLA-DR4w4 (DRB1*0401) (human).
T3 construct: purified HLA class II molecule
Described as above.

For another experiment, the target named is T4, HLA-DR1 (DRB1*0101) (human).
T4 construct: purified HLA class II molecule
Described as above.

Experiment [2] has as its target HLA-A*1101 (human). The experiment is described as follows: competition with 125I-labelled standard peptide for purified HLA; gel filtration.
Experiment [3] concerns the target HLA-A*0301 (human). Described as above.
Experiment [4] has as its target HLA-A*6801 (human). The experiment is described as above.
The target of experiment [5] is HLA-A*3101 (human). The description is as above.
Experiment [6] deals with HLA-A*3301 (human). The description is as above.
The target of experiment [7] is T5, HLA-DRB1*0701 (human).
T5 construct: also called DR7
The experiment is described as follows: competition with 125I probe peptide, purified HLA.

The target in experiment [8] is T1, HLA-DRB1*0101. The experiment is described as follows: inhibition of 125I probe peptide binding to purified HLA-DR, gel filtration. This is another data set of the same source.
Experiment [9] deals with T6, HLA-DRB1*1501 (human).
T6 construct: Purified HLA molecule; also called DR2w2β1
Described as above.

The target in experiment [10] is T7, HLA-A*1101 (human).
T7 construct: The construct is not described
The experiment in a line: competition with 125I-labelled standard peptide for purified HLA, gel filtration.

Experiment [11] has as its target T8, HLA-A*0301 (human).
T8 construct: also called A3
The description is as above.

Experiment [12] concerns the target T9, HLA-A*6801 (human).
T9 construct: The construct is not described
Described as above.

For experiment [13], the target named is T10, HLA-A*3101 (human).
T10 construct: The construct is not described
Described as above.

For experiment [14], the target named is T11, HLA-A*3301 (human).
T11 construct: The construct is not described
The description is as above.

In the next experiment the target is HLA-DR3 (human). The experiment in a line: competitive inhibition of 125I-labeled probe peptide binding to purified HLA-DR3.
The target in experiment [15] is T12, HLA-DRB5*0101 (human).
T12 construct: purified MHC class II molecule; also called DR2w2β2
The experiment in a line: competition with 125I-labelled standard peptide, purified HLA-DR, gel filtration.

Another experiment deals with T13, HLA-A*0201 (human).
T13 construct: the construct is not described; also called HLA-A2.1
The experiment is described as follows: inhibition of 125I-labeled probe peptide binding to purified HLA, gel filtration; relative to standard peptide.

The target of experiment [16] is T14, HLA-DRB1*0401 (human).
T14 construct: Purified HLA molecule; also called DR4w4
The experiment in a line: inhibition of 125I probe peptide binding to purified HLA-DR, gel filtration.

The target in experiment [17] is T15, HLA-DRB1*1302 (human).
T15 construct: Purified HLA molecule; also called DR6w19
Described as above.

The target of experiment [18] is T16, HLA-DRB1*0802 (human).
T16 construct: Purified HLA molecule; also called DR8w2
The experiment is described as above.

Experiment [19] concerns the target T17, HLA-DRB5*0101 (human).
T17 construct: Purified HLA molecule; also called DR2w2β2
Described as above.

Experiment [20] concerns the target T18, HLA-DRB1*0802 (human).
T18 construct: purified MHC class II molecule; also called DR8w2
The experiment in a line: competition with 125I-labelled standard peptide, purified HLA-DR, gel filtration.

For experiment [21], the target named is T19, HLA-DRB1*1501 (human).
T19 construct: purified MHC class II molecule; also called DR2w2β1
Described as above.

Experiment [22] addresses T20, HLA-DRB1*1302 (human).
T20 construct: purified MHC class II molecule; also called DR6w19
Described as above.

Experiment [23] deals with T21, HLA-DRB1*0401 (human).
T21 construct: purified MHC class II molecule; also called DR4w4
Described as above.

Experiment [24] deals with T22, HLA-DRB1*0101 (human).
T22 construct: purified MHC class II molecule; also called DR1
The experiment is described as above.

For experiment [25], the target named is T23, HLA-DRB1*0701 (human).
T23 construct: Purified HLA molecule; also called DR7
The experiment in a line: inhibition of 125I probe peptide binding to purified HLA-DR, gel filtration.

Experiment [26] has as its target T24, HLA-DRB1*0301 (human).
T24 construct: purified MHC class II molecule; also called DR3
The experiment is described as follows: competition with 125I-labelled standard peptide, purified HLA-DR, gel filtration.

Experiment [27] addresses T24, HLA-DRB1*0301. Described as above. The source holds these as a separate data set.
The target of experiment [28] is HLA-A*3301 (purified HLA class I molecule) (human). The experiment is described as follows: inhibition of 125I probe peptide binding to purified HLA; ratio to standard peptide; minus sign not explained.
Experiment [29] addresses HLA-A*1101 (purified HLA class I molecule) (human). The experiment in a line: inhibition of 125I probe peptide binding to purified HLA; ratio to standard peptide.
Experiment [30] addresses HLA-A*3101 (purified HLA class I molecule) (human). The description is as above.
For experiment [31], the target named is HLA-A*6801 (purified HLA class I molecule) (human). The experiment is described as above.
In experiment [32] the target is T25, HLA-A*0301 (purified HLA class I molecule) (human).
T25 construct: also called A3
The experiment is described as above.

Experiment [33] deals with HLA-A*0206 (purified HLA class I molecule) (human). The experiment in a line: competition with 125I-labelled standard peptide for purified HLA, gel filtration.
Experiment [34] deals with HLA-A*0202 (purified HLA class I molecule) (human). The description is as above.
Experiment [35] has as its target HLA-A*0203 (purified HLA class I molecule) (human). Described as above.
Experiment [36] addresses T26, HLA-A*0201 (purified HLA class I molecule) (human).
T26 construct: also called HLA-A2.1
The experiment is described as above.

Experiment [37] has as its target HLA-A*6802 (purified HLA class I molecule) (human). The experiment is described as above.
The target in experiment [38] is T27, HLA-DRB1*0101 (human).
T27 construct: also called DR1
The experiment is described as follows: competition with 125I probe peptide, purified HLA.

The IC50 is the concentration needed to halve the response being measured. High values mean weaker potency in that assay, low ones greater potency in that assay. Consider QPDVRPQPPSPREGP (Synthetic peptide) [Her2/neu.1142], for which, in the experiment with HLA-DRB1*0101 [1], the IC50 was determined as 7140 nM.

As to QGFFCPDPAPGAGGM (also called Her2/neu.1028) [HER2/neu peptide QGFFCPDPAPGAGGM (position 1028)], the relative binding ratio in the experiment with HLA-DR7 (DRB1*0701) is -0.0011 ratio to standard peptide; with HLA-DR4w4 (DRB1*0401) it was 0.023 ratio to standard peptide; with HLA-DR1 (DRB1*0101), -0.0005 ratio to standard peptide.

With AVPLDSTFYR [Her2/neu.997.V2], the IC50 in the experiment with HLA-A*1101 [2] is 88 nM; with HLA-A*0301 [3], above 110000 nM; with HLA-A*6801 [4], 73 nM; in the experiment with HLA-A*3101 [5], 30000 nM.

On to AVPLDSTFYK [Her2/neU.997.V2K10], for which the IC50 amounted to 33 nM in the experiment with HLA-A*1101 [2]; 550 nM in the experiment with HLA-A*0301 [3]; 22300 nM with HLA-A*3301 [6]; 229 nM in the experiment with HLA-A*6801 [4]; 1500 nM with HLA-A*3101 [5].

QPPICTIDVYMIMVK came in with an IC50 with HLA-DRB1*0701 [7] of 250 nM.

For the molecule KVPIKWMALESILRR (Synthetic peptide) [Her2/neu.883], the figures for the IC50 with HLA-DRB1*0101 [8] and with HLA-DRB1*1501 [9] were 2.3 nM and 3.4 nM, respectively.

B1: HER2/neu peptide, position 322, 9 amino acids (peptide)
peptide: VTAEDGTQR
notes: Synthetic peptide; also called Her2/neu.322 (9-mer)
Regarding B1, the relative binding ratio is 0.014 ratio (IC50 of standard peptide / IC50 of test peptide) in the experiment with HLA-A*1101 [10]; 0.0002 ratio (IC50 of standard peptide / IC50 of test peptide) with HLA-A*0301 [11]; 0.1 ratio (IC50 of standard peptide / IC50 of test peptide) with HLA-A*6801 [12]; 0.0011 ratio (IC50 of standard peptide / IC50 of test peptide) in the experiment with HLA-A*3101 [13]; 0.0037 ratio (IC50 of standard peptide / IC50 of test peptide) in the experiment with HLA-A*3301 [14].

In the experiment with HLA-DR3, ARLLDIDETEYHADG [Her2/neu.867, listing 1 of 2 here] displayed an IC50 below 1000 nM.

For QMRILKETELRKVKV [Her2/neu.711], the IC50 with HLA-DRB5*0101 [15] was found to be 34 nM.

Regarding YVLIAHNQV (Synthetic peptide) [HER2/neu peptide, position 83, 9 amino acids], the relative binding ratio with HLA-A*0201 is 0.0005 ratio (IC50 of standard peptide / IC50 of test peptide).

For the molecule DEAYVMAGVGSPYVS (Synthetic peptide), the IC50 was determined as 196 nM in the experiment with HLA-DRB1*0401 [16]; 1750 nM in the experiment with HLA-DRB1*1302 [17]; 100 nM in the experiment with HLA-DRB1*0101 [8]; 860 nM with HLA-DRB1*0802 [18]; 3140 nM with HLA-DRB1*1501 [9]; 833 nM with HLA-DRB5*0101 [19].

For the molecule DEAYVMAGVGSPYVS, the IC50 in the experiment with HLA-DRB1*0802 [20] is 860 nM; in the experiment with HLA-DRB1*1501 [21] it was 3140 nM; with HLA-DRB5*0101 [15], 833 nM; with HLA-DRB1*1302 [22], 1750 nM; with HLA-DRB1*0401 [23], 196 nM; in the experiment with HLA-DRB1*0101 [24] it was 100 nM.

For the molecule YVSRLLGICL (Synthetic peptide) [HER2/neu peptide, position 781, 10 amino acids], the relative binding ratio with HLA-A*0201 is 0.0004 ratio (IC50 of standard peptide / IC50 of test peptide).

The molecule QPPICTIDVYMIMVK (Synthetic peptide) yielded a concentration for half-maximal inhibition (IC50) in the experiment with HLA-DRB1*0701 [25] of 250 nM.

Consider ARLLDIDETEYHADG [Her2/neu.867, listing 2 of 2 here], for which the IC50 in the experiment with HLA-DRB1*0301 [26] and with HLA-DRB1*0301 [27] was 968 nM each time.

As for GSGAFGTVYK (also called Her2/neu.727 (10-mer)) [HER2/neu peptide, position 727, 10 amino acids], the relative binding ratio in experiment [28] is -0.0013 ratio (IC50 standard / IC50 test); in [29], 0.13 ratio (IC50 standard / IC50 test); in [30], 0.0014 ratio (IC50 standard / IC50 test); in experiment [31], 0.0012 ratio (IC50 standard / IC50 test); in experiment [32], 0.066 ratio (IC50 standard / IC50 test).

B2: HER2/neu peptide, position 799, 9 amino acids (peptide)
peptide: QLMPYGCLL
notes: Synthetic peptide; also called Her2/neu.799
As to B2, the “relative binding ratio (IC50 of standard peptide / IC50 of test peptide)” value in [33] came out at 0.0052 ratio; in experiment [34], 0.0044 ratio; in [35], 0.088 ratio; in experiment [36] it was 0.023 ratio; in experiment [37] it was 0.0031 ratio.

For TQLFEDNYALAVLDN [Her2/neu.105], the values for the IC50 with HLA-DRB1*0701 [7] and with HLA-DRB1*0101 [38] were 1560 nM and 94 nM, respectively.
